These substances were tested against human complement Factor H (human) (UniProt P08603) (assay: SPR).
Chain of human complement Factor H (human) (P08603 19-1231): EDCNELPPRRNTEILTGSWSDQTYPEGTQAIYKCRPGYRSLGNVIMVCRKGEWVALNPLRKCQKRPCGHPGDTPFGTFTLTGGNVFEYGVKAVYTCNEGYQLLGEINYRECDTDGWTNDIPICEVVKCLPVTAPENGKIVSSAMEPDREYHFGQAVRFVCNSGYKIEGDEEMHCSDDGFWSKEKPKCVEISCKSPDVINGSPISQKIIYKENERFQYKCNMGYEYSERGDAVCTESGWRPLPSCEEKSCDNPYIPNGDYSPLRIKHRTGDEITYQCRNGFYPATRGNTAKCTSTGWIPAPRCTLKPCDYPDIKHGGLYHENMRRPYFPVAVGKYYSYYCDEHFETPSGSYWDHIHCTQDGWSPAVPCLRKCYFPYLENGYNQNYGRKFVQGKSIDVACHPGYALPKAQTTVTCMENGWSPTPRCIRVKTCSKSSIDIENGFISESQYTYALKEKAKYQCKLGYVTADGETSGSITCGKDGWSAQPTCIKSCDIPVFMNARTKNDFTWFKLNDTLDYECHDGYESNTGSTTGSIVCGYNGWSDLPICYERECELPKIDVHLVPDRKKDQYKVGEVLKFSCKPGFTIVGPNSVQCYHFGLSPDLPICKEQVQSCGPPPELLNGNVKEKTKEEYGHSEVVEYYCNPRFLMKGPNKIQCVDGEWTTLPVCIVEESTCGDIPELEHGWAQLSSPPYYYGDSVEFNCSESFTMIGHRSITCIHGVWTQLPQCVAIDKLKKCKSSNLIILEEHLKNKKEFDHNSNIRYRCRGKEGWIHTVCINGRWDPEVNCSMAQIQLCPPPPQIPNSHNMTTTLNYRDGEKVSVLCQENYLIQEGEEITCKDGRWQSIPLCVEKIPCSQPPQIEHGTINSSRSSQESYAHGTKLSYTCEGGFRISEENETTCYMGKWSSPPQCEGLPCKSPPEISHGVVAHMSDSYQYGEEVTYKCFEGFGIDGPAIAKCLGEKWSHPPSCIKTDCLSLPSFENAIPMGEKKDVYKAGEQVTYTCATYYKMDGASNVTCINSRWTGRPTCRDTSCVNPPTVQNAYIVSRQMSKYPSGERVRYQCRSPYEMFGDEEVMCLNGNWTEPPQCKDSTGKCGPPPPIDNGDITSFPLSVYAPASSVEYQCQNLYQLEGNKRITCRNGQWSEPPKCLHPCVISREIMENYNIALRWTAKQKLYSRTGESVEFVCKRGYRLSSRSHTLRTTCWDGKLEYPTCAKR

Substance	response units at 100 nM FHbp (response units)
FHbp ID 1 E92K mutant, soluble recombinant (from UniProt Q9JXV4 20-274) (natural protein)	< 2
FHbp ID 1 H248L mutant, soluble recombinant (from UniProt Q9JXV4 20-274) (natural protein)	< 2
FHbp ID 1 S223R mutant, soluble recombinant (from UniProt Q9JXV4 20-274) (natural protein)	< 2
